Measured values as given in patent US20120316071A1 (published 2012).
Where a chain is given by its changes, count along the chain named. In names and notes the source's numbering stands.

Columns and labels:
[1] = target: T1, Recombinant Human DLL4 (R&D Systems Cat#1506-D4/CF) (human, UniProt Q9NR61 27-524); assay: ECL 96-well plate assay; 0.02 uM Fab, plate coated with 30 ug/mL DLL4
T1 construct: Bought recombinant protein; also called delta-like protein 4; rHuman DLL4

[2] = target: T1, Recombinant Human DLL4 (R&D Systems …); assay: ECL 96-well plate assay; 0.004 uM Fab, plate coated with 15 ug/mL DLL4
[3] = target: T2, rHuman ErbB2/Fc Chimera, CF (R&D Systems Cat#1129-ER) (human, UniProt P04626 23-652); assay: ECL multispot (MSD) assay, antigen spotted on plate, 10 nM Fab;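 also: bound Fab detected with a TAG-labelled detection antibody (1 h, 20 °C), electrochemiluminescence read and compared with each well's blank, signal/blank of 4 or above scored as hit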
T2 construct: Bought recombinant Fc chimera; also called human epidermal growth factor 2 receptor; Fc part of the bought chimera not given

[4] = target: T3, rHuman EGF R/Fc Chimera, CF (R&D Systems Cat#344-ER) (human, UniProt P00533 25-645); assay: as above
T3 construct: Bought recombinant Fc chimera; also called epidermal growth factor receptor; Fc part of the bought chimera not given

[5] = target: T4, rHuman HGF R/c-MET/Fc Chimera, CF (R&D Systems Cat#358-MT/CF) (human, UniProt P08581 25-932); assay: as above
T4 construct: Bought recombinant Fc chimera; also called HGF R/Fc; hepatocyte growth factor receptor; Fc part of the bought chimera not given

[6] = target: T5, rHuman IGF-1 sR, CF (R&D Systems Cat#391-GR) (human, UniProt P08069 31-932); assay: as above
T5 construct: Bought soluble receptor; also called insulin-like growth factor-1 soluble receptor

[7] = target: T6, rHuman P-Cadherin/Fc Chimera, CF (R&D Systems Cat#861-PC) (human, UniProt P22223 108-654); assay: as above
T6 construct: Bought recombinant Fc chimera; Fc part of the bought chimera not given

[8] = target: T7, Recombinant Human DLL4 (R&D Systems Cat#1506-D4/CF) (human, UniProt Q9NR61 27-524); assay: as above
T7 construct: Bought recombinant protein; also called delta-like protein 4; rHuman DLL4

[9] = target: T8, Recombinant Human DLL4 (R&D Systems Cat#1506-D4/CF) (human, UniProt Q9NR61 27-524); assay: ECL (MSD) multispot binding assay, DLL4 immobilised, Fab in solution
T8 construct: Bought protein (R&D Systems Cat#1506-D4/CF), immobilised on the MSD plate; also called delta-like protein 4; rHuman DLL4

[10] = target: T9, rHuman ErbB2/Fc Chimera, CF (human, UniProt P04626 23-652); assay: ECL Multispot (MSD) assay; antigen spotted on plate, Fab in solution;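 also: fab bound 1 h at 20 °C, detected by TAG-labelled antibody electrochemiluminescence, signal relative to each well's blank, ratio of 4 or more marks a hit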
T9 construct: Bought from R&D Systems; also called human epidermal growth factor 2 receptor; not shown: Fc of the bought chimera

[11] = target: T10, rHuman EGF R/Fc Chimera, CF (human, UniProt P00533 25-645); assay: as above
T10 construct: Bought from R&D Systems; also called epidermal growth factor receptor; not shown: Fc of the bought chimera

[12] = target: T11, rHuman HGF R/c-MET/Fc Chimera, CF (human, UniProt P08581 25-932); assay: as above
T11 construct: Bought from R&D Systems; also called HGF R/Fc; hepatocyte growth factor receptor; not shown: Fc of the bought chimera

[13] = target: T12, rHuman Notch-1/Fc Chimera, CF (human, UniProt P46531 19-526); assay: as above
T12 construct: Bought from R&D Systems; not shown: Fc of the bought chimera

[14] = target: T13, rHuman CD44/Fc Chimera, CF (human, UniProt P16070 21-220); assay: as above
T13 construct: Bought from R&D Systems; not shown: Fc of the bought chimera

[15] = target: T14, rHuman IGF-1 sR, (IGF-1 sR), CF (human, UniProt P08069 31-932); assay: as above
T14 construct: Bought from R&D Systems; also called insulin-like growth factor-1 soluble receptor

[16] = target: T15, rHuman Erythropoietin R/Fc Chimera, CF (human, UniProt P19235 25-250); assay: as above
T15 construct: Bought from R&D Systems; also called EPO R; EPO R/Fc; not shown: Fc of the bought chimera
T15 sequence (looked up): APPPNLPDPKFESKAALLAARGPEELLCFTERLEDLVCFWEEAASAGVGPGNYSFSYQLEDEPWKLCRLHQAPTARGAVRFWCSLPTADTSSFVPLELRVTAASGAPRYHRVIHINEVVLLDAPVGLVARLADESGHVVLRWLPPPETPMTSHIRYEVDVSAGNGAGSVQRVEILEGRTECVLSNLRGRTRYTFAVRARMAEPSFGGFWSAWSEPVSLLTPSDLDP

Recombinant Human DLL4 = target: T16, Recombinant Human DLL4 (human, UniProt Q9NR61 27-524); assay: as above
T16 construct: Bought from R&D Systems; also called delta-like protein 4; rHuman DLL4

[17] = target: T17, Recombinant Human DLL4 (R&D Systems Cat#1506-D4/CF) (human, UniProt Q9NR61 27-524); assay: ECL (MSD) multispot binding assay, immobilised recombinant human DLL4, Fab at 0.04 uM
T17 construct: also called delta-like protein 4; Delta-like 4

T11 sequence (P08581 25-932, change not shown): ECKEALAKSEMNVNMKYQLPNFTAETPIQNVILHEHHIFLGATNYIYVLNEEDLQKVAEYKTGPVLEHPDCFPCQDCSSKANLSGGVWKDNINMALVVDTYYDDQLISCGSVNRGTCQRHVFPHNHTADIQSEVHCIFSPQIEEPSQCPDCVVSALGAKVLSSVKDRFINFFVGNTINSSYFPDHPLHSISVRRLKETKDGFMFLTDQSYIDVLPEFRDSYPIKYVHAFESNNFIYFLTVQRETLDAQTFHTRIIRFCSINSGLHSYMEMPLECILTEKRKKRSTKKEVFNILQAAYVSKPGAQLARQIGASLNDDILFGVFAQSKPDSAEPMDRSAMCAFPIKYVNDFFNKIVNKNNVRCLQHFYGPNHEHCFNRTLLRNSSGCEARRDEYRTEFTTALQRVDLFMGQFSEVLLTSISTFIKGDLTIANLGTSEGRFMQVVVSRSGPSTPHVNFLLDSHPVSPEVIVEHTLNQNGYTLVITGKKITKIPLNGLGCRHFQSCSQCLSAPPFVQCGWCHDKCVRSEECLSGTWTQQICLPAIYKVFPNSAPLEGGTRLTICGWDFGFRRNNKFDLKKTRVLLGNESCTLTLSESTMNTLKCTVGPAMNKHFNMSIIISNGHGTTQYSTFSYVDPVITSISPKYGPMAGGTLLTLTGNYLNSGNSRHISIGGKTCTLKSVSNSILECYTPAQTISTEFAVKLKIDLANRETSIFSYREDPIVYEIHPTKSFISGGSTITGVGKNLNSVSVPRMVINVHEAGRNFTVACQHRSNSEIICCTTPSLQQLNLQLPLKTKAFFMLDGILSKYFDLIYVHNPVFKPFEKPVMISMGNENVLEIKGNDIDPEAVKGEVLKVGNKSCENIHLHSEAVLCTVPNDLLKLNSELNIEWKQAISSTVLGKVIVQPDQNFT
T4 sequence (P08581 25-932, change not shown): as above

B1: Fab VH1-46_IGHD6-6*01_IGHJ1*01 S102A & L6_IGKJ1*01 (Fab, V domains shown)
VH: QVQLVQSGAEVKKPGASVKVSCKASGYTFTSYYMHWVRQAPGQGLEWMGIINPSGGSTSYAQKFQGRVTMTRDTSTSTVYMELSSLRSEDTAVYYCAREEYASSSAEYFQHWGQGTLVTVSS
VL: not shown
notes: Fab; heavy chain CDR3 NNK mutant of the parent; Constant parts as for the parent Fab
- Signal/Noise [1]: 51.7
- Signal/Noise [2]: 69.8

B2: Fab VH1-46_IGHD6-6*01_IGHJ1*01 S102G & L6_IGKJ1*01 (Fab, V domains shown)
VH: B1 VH with A102G
VL: not shown
notes: as for B1
- Signal/Noise [1]: 5.1
- Signal/Noise [2]: 5.2

B3: Fab VH1-46_IGHD6-6*01_IGHJ1*01 S102I & L6_IGKJ1*01 (Fab, V domains shown)
VH: B1 VH with A102I
VL: not shown
notes: as for B1
- Signal/Noise [1]: 35.3
- Signal/Noise [2]: 34.5

B4: Fab VH1-46_IGHD6-6*01_IGHJ1*01 S102Q & L6_IGKJ1*01 (Fab, V domains shown)
VH: B1 VH with A102Q
VL: not shown
notes: Fab; heavy chain CDR3 NNK mutant of the parent; Constant parts as for the parent Fab (CH1 with His6/Flag tags, kappa CL)
- Signal/Noise [1]: 40.6
- Signal/Noise [2]: 31.9

B5: Fab VH1-46_IGHD6-6*01_IGHJ1*01 S102V & L6_IGKJ1*01 (Fab, V domains shown)
VH: B1 VH with A102V
VL: not shown
notes: as for B1
- Signal/Noise [1]: 35.9
- Signal/Noise [2]: 36.5

B6: Fab VH1-46_IGHD6-6*01_IGHJ1*01 S103C & L6_IGKJ1*01 (Fab, V domains shown)
VH: B1 VH with A102S, S103C
VL: not shown
notes: as for B1
- Signal/Noise [1]: 27.1
- Signal/Noise [2]: 27.4

B7: Fab VH1-46_IGHD6-6*01_IGHJ1*01 S103H & L6_IGKJ1*01 (Fab, V domains shown)
VH: B1 VH with A102S, S103H
VL: not shown
notes: as for B1
- Signal/Noise [1]: 21.7
- Signal/Noise [2]: 31.7

B8: Fab VH1-46_IGHD6-6*01_IGHJ1*01 S103P & L6_IGKJ1*01 (Fab, V domains shown)
VH: B1 VH with A102S, S103P
VL: not shown
notes: as for B1
- Signal/Noise [1]: 59.7
- Signal/Noise [2]: 82.4

B9: Fab VH1-46_IGHD6-6*01_IGHJ1*01 S103stop & L6_IGKJ1*01 (Fab, V domains shown)
VH: QVQLVQSGAEVKKPGASVKVSCKASGYTFTSYYMHWVRQAPGQGLEWMGIINPSGGSTSYAQKFQGRVTMTRDTSTSTVYMELSSLRSEDTAVYYCAREEYS
VL: not shown
notes: The heavy chain is therefore truncated in CDR3 and carries no CH1 or tags
- Signal/Noise [1]: 0.8
- Signal/Noise [2]: 1.1

B10: Fab VH1-46_IGHD6-6*01_IGHJ1*01 S102A/S103P/S104F/H111F & L6_IGKJ1*01 (Fab, V domains shown)
VH: B1 VH with S103P, S104F, H111F
VL: not shown
notes: Fab expressed in E. coli: VH cloned into Plasmid A (CH1, His6 and Flag tags), kappa VL into Plasmid C (kappa CL); also called APFF; H:APFF & L:wt
- ECL signal [3]: 354
- ECL signal [4]: 383
- ECL signal [5]: 347
- ECL signal [6]: 397
- ECL signal [7]: 347
- ECL signal [8]: 78400

B11: Fab VH1-46_IGHD6-6*01_IGHJ1*01 S102A/S103P/S104F (APF) & L6_IGKJ1*01 R91P (Fab, V domains shown)
VH: B1 VH with S103P, S104F
VL: EIVLTQSPATLSLSPGERATLSCRASQSVSSYLAWYQQKPGQAPRLLIYDASNRATGIPARFSGSGSGTDFTLTISSLEPEDFAVYYCQQPSNWPPWTFGQGTKVEIKR
notes: Fab with CH1 plus His6/Flag tags and kappa CL from the expression plasmids; also called APF & R91P
- ECL signal [9]: 1280
- Signal/Blank [9]: 4.7

B12: Fab VH1-46_IGHD6-6*01_IGHJ1*01 S102A/S103P/S104F (APF) & L6_IGKJ1*01 R91Q (Fab, V domains shown)
VH: B1 VH with S103P, S104F
VL: B11 VL with P91Q
notes: Fab with CH1 plus His6/Flag tags and kappa CL from the expression plasmids; also called APF & R91Q
- ECL signal [9]: 817
- Signal/Blank [9]: 3.1

B13: Fab VH1-46_IGHD6-6*01_IGHJ1*01 S102A/S103P/S104F (APF) & L6_IGKJ1*01 S92N (Fab, V domains shown)
VH: B1 VH with S103P, S104F
VL: B11 VL with P91R, S92N
notes: Fab with CH1 plus His6/Flag tags and kappa CL from the expression plasmids; also called APF & S92N
- ECL signal [9]: 2090

B14: Fab VH1-46_IGHD6-6*01_IGHJ1*01 S102A/S103P/S104F/H111F (APFF) & L6_IGKJ1*01 N93H (Fab, V domains shown)
VH: B1 VH with S103P, S104F, H111F
VL: B11 VL with P91R, N93H
notes: Fab with CH1 plus His6/Flag tags and kappa CL from the expression plasmids; also called APFF & N93H
- ECL signal [9]: 14700

B15: Fab VH1-46_IGHD6-6*01_IGHJ1*01 S102A/S103P/S104F/H111F (APFF) & L6_IGKJ1*01 N93Q (Fab, V domains shown)
VH: B1 VH with S103P, S104F, H111F
VL: B11 VL with P91R, N93Q
notes: Fab with CH1 plus His6/Flag tags and kappa CL from the expression plasmids; also called APFF & N93Q
- ECL signal [9]: 704

B16: Fab VH1-46_IGHD6-6*01_IGHJ1*01 S102A/S103P/S104F/H111F (APFF) & L6_IGKJ1*01 N93S (Fab, V domains shown)
VH: B1 VH with S103P, S104F, H111F
VL: B11 VL with P91R, N93S
notes: Fab with CH1 plus His6/Flag tags and kappa CL from the expression plasmids; also called APFF & N93S
- ECL signal [9]: 6440

B17: Fab VH1-46_IGHD6-6*01_IGHJ1*01 S102A/S103P/S104F/H111F (APFF) & L6_IGKJ1*01 N93Y (Fab, V domains shown)
VH: B1 VH with S103P, S104F, H111F
VL: B11 VL with P91R, N93Y
notes: Fab with CH1 plus His6/Flag tags and kappa CL from the expression plasmids; also called APFF & N93Y
- ECL signal [9]: 1380

B18: Fab VH1-46_IGHD6-6*01_IGHJ1*01 S102A/S103P/S104F/H111F (APFF) & L6_IGKJ1*01 S28Q (Fab, V domains shown)
VH: B1 VH with S103P, S104F, H111F
VL: B11 VL with S28Q, P91R
notes: Fab made in E. coli; the variable domains were cloned into Plasmid A (CH1, His and Flag tags) and Plasmid C (kappa CL); also called APFF / S28Q
- ECL signal [10]: 345
- ECL signal [11]: 517
- ECL signal [12]: 380
- ECL signal [13]: 331
- ECL signal [14]: 420
- ECL signal [15]: 404
- ECL signal [16]: 437
- ECL signal (Recombinant Human DLL4): 133000

B19: Fab VH1-46_IGHD6-6*01_IGHJ1*01 S102A/S103P/S104F/H111F (APFF) & L6_IGKJ1*01 S28T (Fab, V domains shown)
VH: B1 VH with S103P, S104F, H111F
VL: B11 VL with S28T, P91R
notes: Fab made in E. coli; the variable domains were cloned into Plasmid A (CH1, His and Flag tags) and Plasmid C (kappa CL); also called APFF / S28T
- ECL signal [10]: 271
- ECL signal [11]: 321
- ECL signal [12]: 371
- ECL signal [13]: 249
- ECL signal [14]: 368
- ECL signal [15]: 355
- ECL signal [16]: 380
- ECL signal (Recombinant Human DLL4): 159000

B20: Fab VH5-51_IGHD5-18*01>3_IGHJ4*01 G100K/G104T (H:KT) & V3-4_IGLJ1*01 V91A (Fab, V domains shown)
VH: EVQLVQSGAEVKKPGESLKISCKGSGYSFTSYWIGWVRQMPGKGLEWMGIIYPGDSDTRYSPSFQGQVTISADKSISTAYLQWSSLKASDTAMYYCARRKYSYTYDYFDYWGQGTLVTVSS
VL: QTVVTQEPSFSVSPGGTVTLTCGLSSGSVSTSYYPSWYQQTPGQAPRTLIYSTNTRSSGVPDRFSGSILGNKAALTITGAQADDESDYYCALYMGSGISYVFGTGTKVTVL
notes: Fab; CH1 (His6/Flag tags, plasmid A) and lambda CL (plasmid E) as for the parent
- ECL Signal/Noise [17]: 48.5

B21: Fab VH5-51_IGHD5-18*01>3_IGHJ4*01 G100K/G104T (H:KT) & V3-4_IGLJ1*01 Y93A (Fab, V domains shown)
VH: B20 VH
VL: B20 VL with A91V, Y93A
notes: as for B20
- ECL Signal/Noise [17]: 21.3
